The results in this text go back to PMC2863070.

In this assay the target is HSV-2 virion protein 22 (VP22), encoded by gene UL49 peptide on HLA-B*07:02 (human). As to the kind of experiment: 51Cr release. As to conditions: chains alpha TCRAV38-2 CDR3:beta TCRBV5-1 CDR3.

B1: clone 9.30 (peptide)
chain 1: CAFGRGAQKLVF
chain 2: CATRIGWGTDTQYF
On to B1, for which the EC50 of peptide is 0.11 nM.

B2: clone 9.66 (peptide)
chain 1: CAFGRGAQKLVF
chain 2: CATRIGWGTDTQYF
The molecule B2 showed an EC50 of peptide of 0.1 nM.
